Measured values as given in patent US20110244498.

System: non-phosphorylated pKID-Abl

Question: For “Abl tyrosine kinase (New England Biolabs)”, which “conversion of non-phosphorylated pKID-Abl to phosphorylated pKID-Abl (analytical HPLC, 30 min at 37 C, 300 units Abl)” value is on record?
Answer: 62% conversion of non-phosphorylated pKID-Abl to phosphorylated pKID-Abl in the absence of Gleevec

Question: And the “conversion of non-phosphorylated pKID-Abl to phosphorylated pKID-Abl in the presence of 50 µM Gleevec (analytical HPLC)” value?
Answer: less than 5% conversion was observed in the presence of Gleevec

Question: What about the “terbium luminescence after incubation with kinase” value of the same substance?
Answer: resulted in a significant increase in terbium luminescence
